The text below walks through data of patent publication US20210115424A1 (University of California, published 2021).

Data set [1] concerns the target T1, SpaA derived sorting signal peptide KNAGFELPLTGGSGRI
T1 chain: KNAGFELPLTGGSGRI

Data set [2] concerns the target SpaA, soluble form (residues 30-500) lacking the N-terminal signal peptide and C-terminal membrane anchor domain.
Data set [3] addresses sorting signal peptide (quantitative HPLC assay of Table 2).
In data set [4] the target is ^NSpaA, N-terminal domain of SpaA (residues 30-194) containing the pilin motif with K190.
Data set [5] deals with the molecule itself. Nature of the data set: X-ray crystallography (homodimer in the crystal).
For data set [6], the target named is ^CSpaA, C-terminal domain of SpaA (residues 350-500) containing the LPLTG sorting signal.
For data set [7], the target named is T2, pilin motif peptide DGWLQDVHVYPKHQALS
T2 chain: DGWLQDVHVYPKHQALS

Data set [8] addresses T3, LPATG peptide KNAGFELPATGGSGRI
T3 chain: KNAGFELPATGGSGRI

B1: ΔSrtA^2M (SrtA^2M with the H1 helix, residues 37-54, removed) (protein)
chain: DSPAVRDSVLEAARQYNTSVVGFPILGPGLNRASKNSGPYLDYLQQLNPQRAERPVIASISIPTIDAHLPIYHGTDTATLEHGLGHLYGSALPVGGTGTHPVITGHSGLANATLFDNLEDVKEHDPIYITVQGETLKYEVDAINVVLPEDTKLLAPDPNKDQITLITCTPYAVNSHRLLVRAHRVDLDPNDPNLTQTGTKIWQ
B1: in data set [1], the Vmax of hydrolysis kinetics (HPLC-based assay, SpaApep cleavage) amounted to 6.3 µM/h. Moreover, in data set [2], the “in vitro SpaA pilus polymerization (SDS-PAGE)” value is given as “the removal of the H1 helix in the SrtA^2M enzyme also abrogates pilus polymerization”.

B2: CdSrtA^Δ (CdSrtA active truncated variant with nine lid residues … deleted) (protein)
chain: NNARQARVAQSYENSYEVDSPAVRDSVLEAARQYNTSVVGFPSKNSGPYLDYLQQLNPQRAERPVIASISIPTIDAHLPIYHGTDTATLEHGLGHLYGSALPVGGTGTHPVITGHSGLANATLFDNLEDVKEHDPIYITVQGETLKYEVDAINVVLPEDTKLLAPDPNKDQITLITCTPYAVNSHRLLVRAHRVDLDPNDPNLTQTGTKIWQ
Take B2: in data set [3], the Km (M) × 10^-4 was found to be 0.00016 M, the Vmax (s^-1) × 10^-9 is 1e-08 s⁻¹, the kcat (s^-1) × 10^-5 was 0.0004 s⁻¹ and the kcat/kM came out at 2.5 M⁻¹ s⁻¹.

B3: SrtA^2M N228A variant (protein)
chain: NNARQARVAQSYENSYEVDSPAVRDSVLEAARQYNTSVVGFPILGPGLNRASKNSGPYLDYLQQLNPQRAERPVIASISIPTIDAHLPIYHGTDTATLEHGLGHLYGSALPVGGTGTHPVITGHSGLANATLFDNLEDVKEHDPIYITVQGETLKYEVDAINVVLPEDTKLLAPDPNKDQITLITCTPYAVASHRLLVRAHRVDLDPNDPNLTQTGTKIWQ
Consider B3, for which the “hydrolysis of SpaApep (HPLC-based assay, SrtA^2M set as 100%)” value in data set [1] is listed as “none of the mutants exhibited any significant defect in cleaving the LPXTG (SEQ ID NO. 5) motif”. Also, the “transpeptidation in vitro (ligation of ^NSpaA and ^CSpaA, SDS-PAGE)” value (“transpeptidation in vitro” below) in data set [4] was “defective in transpeptidation in vitro, as no isopeptide linked SpaA-SpaA product was produced even after 48 hours”.

B4: SrtA^2M Y225A variant (protein)
chain: NNARQARVAQSYENSYEVDSPAVRDSVLEAARQYNTSVVGFPILGPGLNRASKNSGPYLDYLQQLNPQRAERPVIASISIPTIDAHLPIYHGTDTATLEHGLGHLYGSALPVGGTGTHPVITGHSGLANATLFDNLEDVKEHDPIYITVQGETLKYEVDAINVVLPEDTKLLAPDPNKDQITLITCTPAAVNSHRLLVRAHRVDLDPNDPNLTQTGTKIWQ
As for B4, the “hydrolysis of SpaApep (HPLC-based assay, SrtA^2M set as 100%)” value in data set [1] was “none of the mutants exhibited any significant defect in cleaving the LPXTG (SEQ ID NO. 5) motif”. The “transpeptidation in vitro” value in data set [4] is “had impaired transpeptidation activity as well, but to a lesser extent than the S229A and N228A mutants”.

B5: Corynebacterium diphtheriae pilus-specific sortase SrtA, soluble catalytic domain fragment (residues 37-257), SrtA^WT (enzyme)
chain: NNARQARVAQSYENSYEVDSPAVRDSVLEAARQYNTSVVGFPILDPWLNRASKNSGPYLDYLQQLNPQRAERPVIASISIPTIDAHLPIYHGTDTATLEHGLGHLYGSALPVGGTGTHPVITGHSGLANATLFDNLEDVKEHDPIYITVQGETLKYEVDAINVVLPEDTKLLAPDPNKDQITLITCTPYAVNSHRLLVRAHRVDLDPNDPNLTQTGTKIWQ
notes: The His6-SUMO or His/TEV tag was removed after purification; also called CdSrtA^WT; Cd-SrtA
B5: the Vmax of hydrolysis kinetics (HPLC-based assay, SpaApep cleavage) in data set [1] was determined as 5.5 µM/h. Moreover, in data set [5], the binding result is reported as “binds”.

B6: SrtA^2M N165A variant (protein)
chain: NNARQARVAQSYENSYEVDSPAVRDSVLEAARQYNTSVVGFPILGPGLNRASKNSGPYLDYLQQLNPQRAERPVIASISIPTIDAHLPIYHGTDTATLEHGLGHLYGSALPVGGTGTHPVITGHSGLAAATLFDNLEDVKEHDPIYITVQGETLKYEVDAINVVLPEDTKLLAPDPNKDQITLITCTPYAVNSHRLLVRAHRVDLDPNDPNLTQTGTKIWQ
Turning to B6, the “hydrolysis of SpaApep (HPLC-based assay, SrtA^2M set as 100%)” value in data set [1] is reported as “none of the mutants exhibited any significant defect in cleaving the LPXTG (SEQ ID NO. 5) motif”. In addition, the “transpeptidation in vitro” value in data set [4] was “this mutant retained near wild-type activity”.

B7: SrtA^2M S229A variant (protein)
chain: NNARQARVAQSYENSYEVDSPAVRDSVLEAARQYNTSVVGFPILGPGLNRASKNSGPYLDYLQQLNPQRAERPVIASISIPTIDAHLPIYHGTDTATLEHGLGHLYGSALPVGGTGTHPVITGHSGLANATLFDNLEDVKEHDPIYITVQGETLKYEVDAINVVLPEDTKLLAPDPNKDQITLITCTPYAVNAHRLLVRAHRVDLDPNDPNLTQTGTKIWQ
Consider B7, for which the “hydrolysis of SpaApep (HPLC-based assay, SrtA^2M set as 100%)” value in data set [1] is reported as “none of the mutants exhibited any significant defect in cleaving the LPXTG (SEQ ID NO. 5) motif”. Besides, the “transpeptidation in vitro” value in data set [4] is on record as “defective in transpeptidation in vitro, as no isopeptide linked SpaA-SpaA product was produced even after 48 hours”.

B8: SrtA^2M (residues 37-257 of CdSrtA with D81G/W83G lid mutations) (protein)
chain: NNARQARVAQSYENSYEVDSPAVRDSVLEAARQYNTSVVGFPILGPGLNRASKNSGPYLDYLQQLNPQRAERPVIASISIPTIDAHLPIYHGTDTATLEHGLGHLYGSALPVGGTGTHPVITGHSGLANATLFDNLEDVKEHDPIYITVQGETLKYEVDAINVVLPEDTKLLAPDPNKDQITLITCTPYAVNSHRLLVRAHRVDLDPNDPNLTQTGTKIWQ
B8: in data set [1], the Vmax of hydrolysis kinetics (HPLC-based assay, SpaApep cleavage) turned out to be 6.3 µM/h.

B9: CdSrtA^3M (CdSrtA D81G/W83G/N85A triple mutant) (protein)
chain: NNARQARVAQSYENSYEVDSPAVRDSVLEAARQYNTSVVGFPILGPGLARASKNSGPYLDYLQQLNPQRAERPVIASISIPTIDAHLPIYHGTDTATLEHGLGHLYGSALPVGGTGTHPVITGHSGLANATLFDNLEDVKEHDPIYITVQGETLKYEVDAINVVLPEDTKLLAPDPNKDQITLITCTPYAVNSHRLLVRAHRVDLDPNDPNLTQTGTKIWQ
As to B9, in data set [6], the “cross-linked ^NSpaAx^CSpaA product after 24 hour incubation, relative to CdSrtA^2M (gel densitometry)” value is listed as 35% more product than CdSrtA^2M and the “cross-linked ^NSpaAx^CSpaA product after 24 hour incubation, relative to CdSrtA^WT (gel densitometry)” value is recorded as 10.6-fold more cross-linked ^NSpaAx^CSpaA product than CdSrtA^WT. In addition, the “HPLC-based sorting signal cleavage assay” value in data set [1] was “the CdSrtA^3M triple mutant exhibits the highest level of activity in a HPLC-based sorting signal cleavage assay”. The “labeling of ^NSpaA with the sorting signal peptide (MALDI-MS)” value in data set [4] is listed as >95% of ^NSpaA is labeled with the peptide. Besides, in data set [3], the Km (M) × 10^-4 is 8e-05 M, the Vmax (s^-1) × 10^-9 was determined as 1.4e-09 s⁻¹, the kcat (s^-1) × 10^-5 turned out to be 5.7e-05 s⁻¹ and the kcat/kM worked out at 0.7 M⁻¹ s⁻¹. Moreover, the “ligation of the pilin motif peptide to ^CSpaA or to the sorting signal peptide (MALDI-MS)” value in data set [7] is “In both instances, no detectable product was observed”. Moreover, in data set [8], the “hydrolysis of LPATG peptide (HPLC)” value was “CdSrtA^3M is unable to process any significant amount of peptide”.

B10: Staphylococcus aureus sortase A, wild type (protein)
chain: QAKPQIPKDKSKVAGYIEIPDADIKEPVYPGPATPEQLNRGVSFAEENESLDDQNISIAGHTFIDRPNYQFTNLKAAKKGSMVYFKVGNETRKYKMTSIRDVKPTDVGVLDEQKGKDKQLTLITCDDYNEKTGVWEKRKIFVATEVK
B10: in data set [8], the “hydrolysis of LPATG peptide (HPLC)” value is “SaSrtA robustly hydrolyzes the LPATG (SEQ ID NO. 5) peptide, as expected”.

B11: Staphylococcus aureus sortase A improved variant 4M (P94S/D160N/D165A/K196T) (protein)
chain: QAKPQIPKDKSKVAGYIEIPDADIKEPVYPGPATSEQLNRGVSFAEENESLDDQNISIAGHTFIDRPNYQFTNLKAAKKGSMVYFKVGNETRKYKMTSIRNVKPTAVGVLDEQKGKDKQLTLITCDDYNEKTGVWETRKIFVATEVK
On to B11, for which the “hydrolysis of LPATG peptide (HPLC)” value in data set [8] is given as “almost entirely hydrolyzes the full length peptide after 24 hrs”.
